The target of the experiment is FUS-DDIT3 (Type II fusion), recombinant. In words: partitioning of a labelled client into condensates.

As to “ARID1A^PLD, recombinant prion-like domain of ARID1A (domain or fragment)”, the partition coefficient is 15.
To “ARID1B^PLD, recombinant prion-like domain of ARID1B (domain or fragment)” belongs 3.8; to “BRG1, recombinant, RED-tris-NTA-labeled (from UniProt P51532 1-1647) (natural protein)”, 27.
To “BRG1^PLD, recombinant N-terminal prion-like domain of BRG1 (from UniProt P51532 1-340) (domain or fragment)” belongs 40; to “SS18^PLD, recombinant prion-like domain of SS18 (domain or fragment)”, 6.

For the origin of these results see article doi:10.1101/2021.04.23.440992.
